The record followed here is US20240011031, “COMPOSITIONS COMPRISING A NUCLEASE AND USES THEREOF” (Arbor Biotechnologies, Inc., published 2024).

A value given as a limit tells only on which side of the number the result lay.

Data set [1] deals with T1, Effector SEQ ID NO: 2 (CLUST.200916 nuclease).
T1 chain: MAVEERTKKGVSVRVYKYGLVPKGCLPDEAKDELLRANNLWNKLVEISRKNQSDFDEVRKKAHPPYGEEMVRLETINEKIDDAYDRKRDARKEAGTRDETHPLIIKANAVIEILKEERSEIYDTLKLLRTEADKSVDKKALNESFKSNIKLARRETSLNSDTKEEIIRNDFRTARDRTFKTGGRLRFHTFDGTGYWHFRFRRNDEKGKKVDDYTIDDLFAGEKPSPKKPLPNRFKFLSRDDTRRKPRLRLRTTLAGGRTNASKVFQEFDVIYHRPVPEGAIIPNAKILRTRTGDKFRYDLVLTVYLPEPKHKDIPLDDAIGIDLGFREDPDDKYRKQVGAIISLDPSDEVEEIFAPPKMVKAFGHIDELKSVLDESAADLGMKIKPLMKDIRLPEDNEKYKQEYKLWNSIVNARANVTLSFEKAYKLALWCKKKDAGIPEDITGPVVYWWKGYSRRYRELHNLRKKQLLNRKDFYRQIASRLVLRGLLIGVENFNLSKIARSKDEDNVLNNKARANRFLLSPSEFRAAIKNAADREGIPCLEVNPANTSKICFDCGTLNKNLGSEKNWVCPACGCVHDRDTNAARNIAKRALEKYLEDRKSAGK
Put plainly: GFP fluorescence depletion in IVTT, 37 C, 12 h; PAM 5'-TCCA-3'. An excerpt:
(§1) In this assay, an active CRISPR system designed to target GFP binds and cleaves the double-stranded DNA region encoding GFP, resulting in depletion of GFP fluorescence. The FDA assay involves in vitro transcription and translation, allowing production of an RNP from a DNA template encoding a CLUST.200916 effector and a DNA template containing a pre-crRNA sequence under a T7 promoter with direct repeat (DR)-spacer-direct repeat (DR); the spacer targeted GFP. In the same one-pot reaction, GFP and RFP were also produced as both the target and the fluorescence reporter (FIG. SA). The target GFP plasmid sequence is set forth in SEQ ID NO: 205, and the fluorescence reporter RFP plasmid sequence is set forth in SEQ ID NO: 206. GFP and RFP fluorescence values were measured every 20 min at 37° C. for 12 hr, using a TECAN Infinite F Plex plate reader. Since RFP was not targeted, its fluorescence was not affected and was therefore used as an internal signal control.
(§2) GFP signal was normalized to RFP signal, then the average fluorescence of three technical replicates was taken at each time point. GFP fluorescence depletion was then calculated by dividing the GFP signal of an effector incubated with a non-GFP targeting RNA guide (which instead targets a kanamycin resistance gene) by the GFP signal of an effector incubated with a GFP targeting RNA guide. […]

The target of data set [2] is T1, Effector SEQ ID NO: 2 (CLUST.200916 …). Put plainly: GFP fluorescence depletion in IVTT, 37 C, 12 h; PAM 5'-ACCG-3'.
Description: as §1, §2

Data set [3] shares this target. Put plainly: GFP fluorescence depletion in IVTT, 37 C, 12 h; PAM 5'-TCCT-3'.
Description: as §1, §2

The target is the same in data set [4]. The data set is described as follows: GFP fluorescence depletion in IVTT, 37 C, 12 h; PAM 5'-CCCG-3'.
Description: as §1, §2

Data set [5] shares this target. The data set is described as follows: GFP fluorescence depletion in IVTT, 37 C, 12 h; PAM 5'-CCCA-3'.
Description: as §1, §2

B1: pre-crRNA GFP Target 5 ; GFP Target 5 (ssRNA ; dsDNA)
RNA: GGUAUAACGACCCUGCGAAGUGGGGUGUAACUUCGACUGACGGCAUUGACGGAAGGUGCAAAACUGUGUAUAACGACCCUGCGAAGUGGGGUGUAACUUCGACCUAACCCCUCUCUAAACGGAGGGGUUU
DNA 1: TGACGGCATTGACGGAAGGTGCAAAACTGT
DNA 2: ACAGTTTTGCACCTTCCGTCAATGCCGTCA
B1 displayed an activity in data set [1] greater than 1 depletion ratio.

B2: pre-crRNA GFP Target 2 ; GFP Target 2 (ssRNA ; dsDNA)
RNA: GGUAUAACGACCCUGCGAAGUGGGGUGUAACUUCGACAAAAACUGGUUACCAAAUGCAGCCAAAUGAGUAUAACGACCCUGCGAAGUGGGGUGUAACUUCGACCUAACCCCUCUCUAAACGGAGGGGUUU
DNA 1: AAAAACTGGTTACCAAATGCAGCCAAATGA
DNA 2: TCATTTGGCTGCATTTGGTAACCAGTTTTT
B2 came in with an activity in data set [2] greater than 1 depletion ratio.

B3: pre-crRNA GFP Target 4 ; GFP Target 4 (ssRNA ; dsDNA)
RNA: GGUAUAACGACCCUGCGAAGUGGGGUGUAACUUCGACUGAUGUGGCUCGGGUACUUGGCGAAACACUGUAUAACGACCCUGCGAAGUGGGGUGUAACUUCGACCUAACCCCUCUCUAAACGGAGGGGUUU
DNA 1: TGATGTGGCTCGGGTACTTGGCGAAACACT
DNA 2: AGTGTTTCGCCAAGTACCCGAGCCACATCA
In data set [3], B3 had an activity greater than 1 depletion ratio.

B4: pre-crRNA GFP Target 3 ; GFP Target 3 (ssRNA ; dsDNA)
RNA: GGUAUAACGACCCUGCGAAGUGGGGUGUAACUUCGACUAGUGCAGAUGUAUUUCGCUUUAAUGGUACGUAUAACGACCCUGCGAAGUGGGGUGUAACUUCGACCUAACCCCUCUCUAAACGGAGGGGUUU
DNA 1: TAGTGCAGATGTATTTCGCTTTAATGGTAC
DNA 2: GTACCATTAAAGCGAAATACATCTGCACTA
B4 had an activity in data set [4] greater than 1 depletion ratio.

B5: pre-crRNA GFP Target 1 ; GFP Target 1 (ssRNA ; dsDNA)
RNA: GGUAUAACGACCCUGCGAAGUGGGGUGUAACUUCGACAGAGCGUACCAUCAGCUUCGAAGGCGACGGGUAUAACGACCCUGCGAAGUGGGGUGUAACUUCGACCUAACCCCUCUCUAAACGGAGGGGUUU
DNA 1: AGAGCGTACCATCAGCTTCGAAGGCGACGG
DNA 2: CCGTCGCCTTCGAAGCTGATGGTACGCTCT
For B5, in data set [5], the activity is greater than 1 depletion ratio.
